Target: T1, integrin α4β7 expressed on transduced human CD4+ T cells (human, UniProt P13612 34-1032; P26010 20-798)
T1 construct: whole, on cells; Endogenous integrin on sorted human CD4+ cells transduced with the GFP or IL-10-GFP retroviral vector; The cells were CFDSE-labelled in the adhesion assay; also called αA4β7; gut-homing molecule α4β7
Assay: cell adhesion assay with blocking mAbs
Procedure: Adhesion of sorted CD4⁺ cells, transduced with GFP (1 donor) or IL-10-GFP (2 donors), to MAdCAM-1 transfected 293T cells was determined after preincubation with or without the following mAbs: 145 2C11 (control), act-1 (αA4β7) or MECA-367 (αMAdCAM-1). Fluorescent-labelled CD4⁺ cells were added to a 96 well plate that contained confluent MAdCAM-1 transfected 293T cells or control 293T cells. Relative binding inhibition was referred to the maximum binding achieved in the absence of mAbs (as described in Materials and Methods).
We investigated whether transduced CD4⁺ cells were able to bind to the mucosal addressin MAdCAM-1 measuring their adhesion to 293T cells stably expressing the murine MAdCAM cDNA (kindly provided by Dr. S. Fong, Genentech Inc., San Fransisco, Calif., USA). […] Fluorescence was measured in a Cytofluor plate reader (Perceptive Biosystems, Frarningham, Mass., USA) before and after washing. The adherence was calculated as the percentage of fluorescent cells remaining after washing. The maximum binding was calculated as the difference in adherence to MAdCAM-1 transfected and control 293T cells.

T1 sequence (P13612 34-1032, chain 1 of 2): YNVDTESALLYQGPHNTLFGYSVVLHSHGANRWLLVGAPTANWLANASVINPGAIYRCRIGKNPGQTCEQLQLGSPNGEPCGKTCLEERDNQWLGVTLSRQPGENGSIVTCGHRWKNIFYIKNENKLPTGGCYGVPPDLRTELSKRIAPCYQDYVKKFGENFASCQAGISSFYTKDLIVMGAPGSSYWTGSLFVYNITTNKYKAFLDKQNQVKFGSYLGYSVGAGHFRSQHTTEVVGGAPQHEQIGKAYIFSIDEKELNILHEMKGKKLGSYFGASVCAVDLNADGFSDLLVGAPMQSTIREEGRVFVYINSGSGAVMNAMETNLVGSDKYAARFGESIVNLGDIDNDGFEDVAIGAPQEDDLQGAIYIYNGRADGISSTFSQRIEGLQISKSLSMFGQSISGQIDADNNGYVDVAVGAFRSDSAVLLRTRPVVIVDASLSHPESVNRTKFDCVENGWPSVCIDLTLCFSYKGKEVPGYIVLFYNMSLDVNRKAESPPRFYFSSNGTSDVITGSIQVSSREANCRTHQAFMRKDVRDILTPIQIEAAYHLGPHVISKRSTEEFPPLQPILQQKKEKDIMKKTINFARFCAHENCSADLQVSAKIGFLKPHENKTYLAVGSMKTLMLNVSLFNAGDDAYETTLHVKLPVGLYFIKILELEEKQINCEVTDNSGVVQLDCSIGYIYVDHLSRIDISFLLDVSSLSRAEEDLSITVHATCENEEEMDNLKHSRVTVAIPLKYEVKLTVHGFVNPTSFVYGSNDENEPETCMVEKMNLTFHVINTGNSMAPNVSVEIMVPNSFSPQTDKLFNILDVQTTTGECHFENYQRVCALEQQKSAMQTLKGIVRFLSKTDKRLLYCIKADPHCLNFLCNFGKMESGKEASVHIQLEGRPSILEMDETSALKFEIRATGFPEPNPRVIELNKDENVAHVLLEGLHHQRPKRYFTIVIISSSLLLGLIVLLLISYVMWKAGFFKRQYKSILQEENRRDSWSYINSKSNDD
T1 sequence (P26010 20-798, chain 2 of 2): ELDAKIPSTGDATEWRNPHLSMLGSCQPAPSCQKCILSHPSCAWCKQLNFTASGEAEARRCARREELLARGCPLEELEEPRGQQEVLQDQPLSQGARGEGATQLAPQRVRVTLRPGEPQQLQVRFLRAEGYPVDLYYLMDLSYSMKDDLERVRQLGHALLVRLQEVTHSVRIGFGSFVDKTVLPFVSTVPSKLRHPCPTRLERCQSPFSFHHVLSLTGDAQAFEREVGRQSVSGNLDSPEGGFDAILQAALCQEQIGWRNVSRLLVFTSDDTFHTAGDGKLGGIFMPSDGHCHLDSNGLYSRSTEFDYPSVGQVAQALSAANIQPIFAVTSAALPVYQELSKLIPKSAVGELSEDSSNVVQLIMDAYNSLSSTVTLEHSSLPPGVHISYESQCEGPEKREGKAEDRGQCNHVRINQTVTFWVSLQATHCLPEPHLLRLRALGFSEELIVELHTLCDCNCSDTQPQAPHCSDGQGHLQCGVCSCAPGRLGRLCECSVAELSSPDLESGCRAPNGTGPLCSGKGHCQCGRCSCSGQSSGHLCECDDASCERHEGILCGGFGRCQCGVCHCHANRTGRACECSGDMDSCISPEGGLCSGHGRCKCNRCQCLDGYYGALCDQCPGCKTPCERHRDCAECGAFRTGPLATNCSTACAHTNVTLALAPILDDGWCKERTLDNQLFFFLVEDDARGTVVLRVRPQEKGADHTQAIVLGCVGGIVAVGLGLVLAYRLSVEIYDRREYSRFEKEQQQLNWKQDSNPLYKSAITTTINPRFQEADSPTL

binding result: binds
B1: murine MAdCAM-1 stably expressed on 293T cells (ligand, UniProt Q61826 22-405, looked up)
chain: QSFQVNPPESEVAVAMGTSLQITCSMSCDEGVARVHWRGLDTSLGSVQTLPGSSILSVRGMLSDTGTPVCVGSCGSRSFQHSVKILVYAFPDQLVVSPEFLVPGQDQVVSCTAHNIWPADPNSLSFALLLGEQRLEGAQALEPEQEEEIQEAEGTPLFRMTQRWRLPSLGTPAPPALHCQVTMQLPKLVLTHRKEIPVLQSQTSPKPPNTTSAEPYILTSSSTAEAVSTGLNITTLPSAPPYPKLSPRTLSSEGPCRPKIHQDLEAGWELLCEASCGPGVTVRWTLAPGDLATYHKREAGAQAWLSVLPPGPMVEGWFQCRQDPGGEVTNLYVPGQVTPNSSSTVVLWIGSLVLGLLALVFLAYRLWKCYRPGPRPDTSSCTHL
notes: whole, on cells; 293T cells stably expressing the murine MAdCAM cDNA (from Dr. S. Fong, Genentech); also called mucosal addressin MAdCAM-1
